Assay results taken from a protein production outcome set (Wang et al. 2014).

Assay: label from the status in PepcDB records

Sequence | protein production
MASSKELCSIREWAPLTEVIERIPARLQRGFFPANLNLTCVDATEEFLAMGSDAGIVFWYNRHTGEMQKLKAEVATRITCVRVVNSVEYMVAAGCANGQVSIFQIQKELPRDLDLVAPCTKSRPIERYTIRDLHKCVVSCCEWSKNGMKLYSGDRQGVVVLTELDYQAHLSKSVEILSEAYEIVQLSVRQSYLLVATLYRCIVCQMDAQTSQWNITQVGKKDRKQLIDCGAIFLKKQEANKPQLVCGRPGLRFWVADAAGNVSKTVIFRDAVLRSPTWEIPILNPKQRSEPSGTHHTSASTSSTRHSGLADGDVGYVASSNFRQLYLYDGHDSLLVTHDDATLYVLNLDRLKVEAVARGLRKILDFCVCGKEIFVLEGNRTLLRLAPLPEPPNKTAKVIFNPLMPPPVPVLGSHLSQLESPIELQAEPVLQNAEECFELSPVEQLNLNVPIEIAVESPLTQQNRRLEIFRRIGEMDFEQSIVHTTRKTSVGKPPEASGVGIVEIGHETHELRLPLTNAATLMEASYCQMENNGLASPLDMKAAFLQHLPDALSPTTLQKTVAEKAKTLAAELDLPEVHLAPLSQEELHAVQAQTPQISDPLIRCYPTHLEEASIQTSSRENATNPADDYHVGEPVDGIRSFGVSKRKMAPLKFVLSQPKPTLKLEENRDDEEYTSFLPDFRRAGDPLAIHKETPATSDSNTSSEWEFLDN | failed
MASSTDQNLMDLSDKDTREKLSFWDRRVDPMAPLTDRQTDSILELRAAAEETLLPAELPIEDICSLSSRSLRSSFTAALPESTEEVLLQGFQMLELHNHRIETAQQFFSWFSKLQVQMDQDEASKYRKTRDVLNGYQEQCDAILNDVNTALDHLDSLQKQYLFVSTKTGTLHEACEQLLKEQSELVDLAESIQEKLSYFNELENINTKLNSPTLSVNSEGFVPMLSKLDECIEYVSSHPNFKDYPVYLTKFKQCLSKAMQLIKSHTVNTLQNLTGQLSKRDPLGAPSA | failed
MASSVLEMIKEEVTCPICLELLKEPVSADCNHSFCRACITLNYESNRNTDGKGNCPVCRVPYPFGNLKPNLHVANIVERLKGFKSIPEEEQKVNICAQHGEKLRLFCRKDMMVICWLCERSQEHRGHQTALIEEVDQEYKEKLQGALRKLMKKAKICDEWQDDLQLQRVDWENQIQINVENVQRQFKGLRDLLDSKENEELQKLKKEKKEVMEKLEESENELEDQTELVRDLISDVEHHLQLSTLEMLQGANCVLRRSQSLSLQQPQSVPQKRKRTFQAPDLKGMLQVYQGLMDIQQYWVHMTLHARNNAVIAINKEKRQIQYRSYNTVPVSEIYHLGVLGYPALSSGKHYWEVDISRSDAWLLGLNDGKCAQPQLHSKEEMGIKKNLHSQIKQNVLFQPKCGYWVIGMKNPSVYNAFDECSITHNSSILVISLPDCPSRVGVFLDRKAGTLSFYDVSNCGALIYRFYDPAFPVEVYPYFNPMKCSEPMTICGPPS | not failed
MASTIQALPQEVVYLITAGEVIDSFAAVVRELVENSLDAGANRIVVYLWPQQWRVRVADNGCGMNLDDLQQAASAHSTSKIRSSADLWKIHSLGFRGEALHSLTTLADVEIISRAPENVGWRVVYGDSGKAVHVEATAIAPGTVVTVSNLFASCAARRQGLPTTAQQMKAVQATIQQIALCHPQTTWQVWQNDRIWFTISPAATAGQLIPQFLPQLRPSDLQEIKLEIPNPENPQLSTNNKPNASALALVVGLPDRCHRHRPDWVRVAINGRMIKLPELEQTILAAFHRTLPRDRYPLCFVHLLISPDQINWNRNPAKTEIYLHDLSYWQEQVTQAINQALRISAANIPESVQTTRVSQLLKAAEEKGNYNFNPRNANPADNTQNYLKAVAQVSNTYIVAEHPGGMWLVEQHIAHERVLYEQLCDNWRLIPVEPPIILYQLSPAQVAQLQRIGLDIDIFGEQLWAVRNLPAMLQQREDCAEAILELSWGGDLQTAQVAVACRSAIRNGTPMSLPEMQKLLDDWQRTRNPRTCPHGRPIYLSLDESSLSRFFRRHWVIGKSHGI | failed
MASVAAARAVPVGSGLRGLQRTLPLVVILGATGTGKSTLALQLGQRLGGEIVSADSMQVYEGLDIITNKVSAQEQRICRHHMISFVDPLVTNYTVVDFRNRATALIEDIFARDKIPIVVGGTNYYIESLLWKVLVNTKPQEMGTEKVIDRKVELEKEDGLVLHKRLSQVDPEMAAKLHPHDKRKVARSLQVFEETGISHSEFLHRQHTEEGGGPLGGPLKFSNPCILWLHADQAVLDERLDKRVDDMLAAGLLEELRDFHRRYNQKNVSENSQDYQHGIFQSIGFKEFHEYLITEGKCTLETSNQLLKKGIEALKQVTKRYARKQNRWVKNRFLSRPGPIVPPVYGLEVSDVSKWEESVLEPALEIVQSFIQGHKPTATPIKMPYNEAENKRSYHLCDLCDRIIIGDREWAAHIKSKSHLNQLKKRRRLDSDAVNTIESQSVSPDHNKEPKEKGSPGQNDQELKCSV | failed
MATAAASVVSSETGDLRAYMAANPAAVIEEVAKQWNVSPHAVIAALPDGMARLGPGDGFVAAMNDIATWGEVTLIVHTEDAIFEFTGEVPRGEISRGYFNLMQPKGLHGHLRHDRCGALAFVERPFMGKASAFVAFLNRDGGIMFKVFVGRDANRELRADQLARFHALAKQFSEEHSALEHHHHHH | failed
MATCIWLRSCGARRLGSTFPGCRLRPRAGGLVPASGPAPGPAQLRCYAGRLAGLSAALLRTDSFVGGRWLPAAATFPVQDPASGAALGMVADCGVREARAAVRAAYEAFCRWREVSAKERSSLLRKWYNLMIQNKDDLARIITAESGKPLKEAHGEILYSAFFLEWFSEEARRVYGDIIHTPAKDRRALVLKQPIGVAAVITPWNFPSAMITRKVGAALAAGCTVVVKPAEDTPFSALALAELASQAGIPSGVYNVIPCSRKNAKEVGEAICTDPLVSKISFTGSTTTGKILLHHAANSVKRVSMELGGLAPFIVFDSANVDQAVAGAMASKFRNTGQTCVCSNQFLVQRGIHDAFVKAFAEAMKKNLRVGNGFEEGTTQGPLINEKAVEKVEKQVNDAVSKGATVVTGGKRHQLGKNFFEPTLLCNVTQDMLCTHEETFGPLAPVIKFDTEEEAIAIANAADVGLAGYFYSQDPAQIWRVAEQLEVGMVGVNEGLISSVECPFGGVKQSGLGREGSKYGIDEYLELKYVCYGGL | failed
MATEKYHEILKKYFLSFETGDFSQVQFSCNLEFLSPISGNTLKGTEEVIPFLKGVTTRVAEVNIMSTTVEYPRASGVWQMRTTKGTLYTLHNFFRLDEEGIVYVWPMFDPKAVMENPDALIQWLTGKDY | not failed
MATFFFKTNYYQEIMLKRIFFLMIFFVSQTMASVFTHEEVQILKKHFLNNFQTNGAIVASPSQYNPNYYYDWIRDSAIAMGLVETWYEASQSARYKKLLLEYVSWTEKIQHQADPIAGQDILGEPKFYINGNPFDGEWGRPQNDGPALRASVLIRFAQQLLDHNEIDYVKSHLYNNTMDPQSMGTIKMDLEYIAHHWQDANFDLWEEVYGHHFFTAMAQQKALTDGAILAHQLHDRQAAVFYEMQANLINSRLKQHLDHQNKIIQATLLPHPGPQKTLELDSSVMLGILINPQKEGVFAPHHTFVQNTAKALHEQFNLMFPINKNRSGAILFGRYPGDTYDGYQTNSIGNPWFILTATMAEYYFTMAHNLSPNSINKLHIQNYLKKGDNYLRLIKQYGPDLNLSEQINLNTGVQQGATSLTWSYVSVLRAIHLREQLENRIKTTGWNTY | failed
MATFMTEDFLLKNDIARTLYHKYAAPMPIYDFHCHLSPQEIADDRRFDNLGQIWLEGDHYKWRALRSAGVDESLITGKETSDYEKYMAWANTVPKTLGNPLYHWTHLELRRPFGITGTLFGPDTAESIWTQCNEKLATPAFSARGIMQQMNVRMVGTTDDPIDSLEYHRQIAADDSIDIEVAPSWRPDKVFKIELDGFVDYLRKLEAAADVSITRFDDLRQALTRRLDHFAACGCRASDHGIETLRFAPVPDDAQLDAILGKRLAGETLSELEIAQFTTAVLVWLGRQYAARGWVMQLHIGAIRNNNTRMFRLLGPDTGFDSIGDNNISWALSRLLDSMDVTNELPKTILYCLNPRDNEVLATMIGNFQGPGIAGKVQFGSGWWFNDQKDGMLRQLEQLSQMGLLSQFVGMLTDSRSFLSYTRHEYFRRILCNLLGQWAQDGEIPDDEAMLSRMVQDICFNNAQRYFTIK | not failed
MATGLGFFKLSFLLSLLSGGSDLLGPDAESGVAQIGKFPPSCNRIECPSYELVHSGNGYEIRRYNNTVWVSTEPIPDISLVDATRTAFFQLFAYIQGKNEYHQKIEMTAPVISQVSPSDGPFCESSFTVSFYVPKKNQPDPAPSENLHIQKWNSRYVAVRQFSGFVSDDSIGEQAAALDSSLKGTAWANAIAKSKEDGGVGSDSAYTVAQYNSPFEFSGRVNEIWLPFELDV | failed
MATGTATEKPKIVWNEGRHRFETDDHEAFIEYKMKNDGKVMDLVRTFVPPSKAGLGLASHLCVAAFEHASEHSFSIIPTCSYVSVYISSFLKKLR | failed
MATLLGFSQTKFHHCGVWISTPPCSSSSTVVSMVGLNRTDSKKLRSDFLGQIGYEDRRQVRHSYCRSSLAVKMSWDGPLASVKLIIQGKNLELSEPIKQHVEEKVGKSVQKHSHLVREVDVRLSVRGGEFGKGPRIRRCEVTLFTKKHGVVRAEEDAETVYACIDLVSTIIQRKLRKIKEKDSDHGRHMKGFNRLKVREPVIEPVVEDVEDSTDSSVGEEEEEDDLIKEIVRTKTFEMPPLTVAEAVEQLELVSHDFYGFQNEETGEINIVYKRKEGGYGLIIPKKDGKAEKVEPLPTEQLNEHSFAE | failed
MATLPAAETWIDGGGGVGADAVNLTASLAAGAATGAVETGWLQLLDQAGNLSSSPSALGLPVASPAPSQPWANLTNQFVQPSWRIALWSLAYGVVVAVAVLGNLIVIWIILAHKRMRTVTNYFLVNLAFSDASMAAFNTLVNFIYALHSEWYFGANYCRFQNFFPITAVFASIYSMTAIAVDRYMAIIDPLKPRLSATATKIVIGSIWILAFLLAFPQCLYSKTKVMPGRTLCFVQWPEGPKQHFTYHIIVIILVYCFPLLIMGITYTIVGITLWGGEIPGDTCDKYHEQLKAKRKVVKMMIIVVMTFAICWLPYHIYFILTAIYQQLNRWKYIQQVYLASFWLAMSSTMYNPIIYCCLNKRFRAGFKRAFRWCPFIKVSSYDELELKTTRFHPNRQSSMYTVTRMESMTVVFDPNDADTTRSSRKKRATPRDPSFNGCSRRNSKSASATSSFISSPYTSVDEYS | failed
MATRFDVKTIVKDKRFWIASFIIVWAAGLQGHMMWLQKQESFKQKFGTIDEDDHK | failed
MATTTSAACPIFSLSLLGRFVLTGPDGAVSLPNKKLAGLLAFLACMAPDPQSREKLSTLLWGSYLDAQAKQNLRQALFKLRQILGQDALRSDGELVSLNAMVIACDVSQFEELVQDGSRDALSAAADLYRGRLADDISVGEECWSEWVAGERERLSELALGAMVTLGGHELSEGRAEQALRTGQRANALNNLREDSHRLIMRALSATGRNAEALKYYRDVVALLKRELSTEPDLATRSLAAELRSNHPQNAAPAAGEVAPEASPPPALVMHGERPSLVVLPFSNMSGDPEQDYFADGVTADIITALSRFRALVVIARGTSFALRDKGMTSQQIAQQLGVQYVLSGQIRKAGNRIRVSAELTHSGSEAQVWSDRYDRPLTDIFDLQDDVSSSVAAVVDPAVRSAEIERARRKPPTNLSAYDLYLRALHHLWGGTREDITKAIDLLRQSLSLDEARSPTLAALAWGLVMASPLGAHTSPDATTEALSLARRAVEQDGTDAFAHAVYGFTLFGPAGDNDQGRIHAVEAVRLNPSSAFAWGTLGMIDSMAGDYENAVTCLHRSLVLSPYDSMLHLWMTGLTASCFALGRHEDGIAWARKSVQHNPGNGTGHRMLAANLVAAGRLEEAREITRRRDATQKTTIRDLRAMRFFKQNDALERYLSAQQVAGVAD | failed
